# Assays:
# [1] = target: LC3B residues 1-120 F52A/L53A (UniProt Q9GZQ8); assay: ITC
# [2] = target: LC3B residues 1-120 WT (UniProt Q9GZQ8); assay: ITC
substance,measurement,setting,value
tepsin LIR motif peptide (residues 185-193),Kd,[1],> 300 µM
same,Kd,[2],44.4 µM
same,stoichiometry N,[2],0.523

# Reference: publication PMC11064669
